We go through nine sequences from a protein production outcome set (Wang et al. 2014).
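Also: failed if final PepcDB status was selected cloned or expressed and not failed if soluble or beyond.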

The series in a line: label from the status in PepcDB records.
With “MKIQDLLRKDIMILDLQAISKEVAIDEMITKLVEKDIVHDFDVFKKSIMTREEQTSTGLGDGIAMPHSKNIVVDKPAVLFAKSNKGVDYKALDGQPTDLFFMIAAPQGANDTHLAALAELSQYLLKDGFADKLRAAATPEAVIAVFDEASTAKEEV”, the protein production entry is on record as “failed”.

As to “MKIRHVSHQAWLLFLVALLVLGSGLGLRDPHPADEPRFALVAKQMVDSGEWLFPHRGNELYSDKPPMLMWLQAAFYTLFGNLKVAFLLPSLLAALGTLVCVYDLGRRLWTRRIGLYAAYALLFTFHFTYQAKRAQIDALVVFFITFANYGLLRHLLFGGHWRWWVLGWFAAGLGTITKGVGALALLIVLPAAAASLAGWPRVRVHVRDVRFWLGPLGFLVAVSLWLVPMVMTALSAQQPEYRAYLNDILLRQTFGRYTKSWDHAQPPWYFLQVMLVMWIPTLLALPWALPAWWRRMRRRDPRYLLPLAWCVLLLVFFSIPSGKRDVYMLPALPMVCLALAPLLPGLLRKRACSRLLLAFGVLLVLVLAVFGAGLLIRSDWQARMMEGTTLILEDVRVIAWGGIAVASWGVFSLLAFSQRRPVVAVFSVLTTLWLVFGLVLMPVVNDSSSARGVMMIAGKRIGPAAELGLVAWKEQNLLMADRSVATFGFLVPWDEQLRRGIAWQVQRPRQRWLLVQEAAMFGCINRSASVFVGSSNRRAWWLVPAWAVHGACIMTQAEHDRLSKQ”, the protein production entry was “failed”.

Regarding “MKIRKLTNEEIKGACAFAVNIYNIAIRGCFRTLDCHRYFDEYMDADRLTDEERTGALVVFGAFDSNVLCGVCGMTNEGHITMLYVHPQYLRRGIGKKLLERVRIYARMQLKLMQVSVNAMPAYTAEYFMHVGFKSAYQGGFCNGQGDMYVPMTAKSIYQVEYTPRHIADKTFIAISVGFTCLVFVSGVIYAVCAGLTP”, the protein production entry is on record as “failed”.

Consider “MKIRNACKEDAQQLIAIYASYVEKTAITFEYQVPSLEEFEERIEKTKQKFPYLVAEEEGILQGYAYASVYYNHAAYDWTVELSIYIKEEARGKHIGSQLYASLERNLQEAGFVNLLVCIALPNNASLTFHKKHGYEQVAHFKKVGYKFDKWYDIVWMQKRLLD”, for which the protein production entry is “failed”.

For the sequence “MKIRSADASDLDSLLRLNYQIGVMHFENAPESFVKPSSEEKEFLLKALNDQSRLFLVAEISGDVVGFVTATVTQNEAIPFLVKTPICRVGTIVVDENARVSGIGTQLMARCNDWAKSQGAEQIRLEVMAFNKSAQSFYVKLGFEEQSKTMWKTVN”, the protein production entry is “failed”.

Regarding “MKISPLCPSCLLGRVYYEAKLVTDDEDLISQCVDESLKILAENYSSAPINAHLATRIHRRVYEILGVEDPYAEVKARANEVARQVLPLAKEIVEGSDDPFKTAVIVSIVGNNFDYGVQGHKVVEEEFRDFLKRKVQEGLKINDTERIKELSSGKVVYLTDNAGEIFFDTLLMKEIKRRCEKLTAVVRGRPIISDATIEDARLARVDKIADELLTNGKGAIGIIMDELPDETRKALEEADLIVAKGMANYECLSDGSLKPIAFLLTAKCEPVARDIGVNVGDMVAKVVE”, the protein production result is “not failed”.

With “MKISVIISNYNYARYLSRAINSVLAQTHSDIEIVIVDDGSTDNSRDVITQLQEQAPDKIKPIFQANQGQGGAFNAGFAAATGEVVAFLDADDVWKPHKLQRIVEVFQTSDVVGVMHHLDIIDGNDKTIDQASTQGPKLSEDLASVILQTGNAWCFPPTSGLAYRREVLEKVFPIDPVKWRIWADGCIIYCTAFLGKIKTLQENLAYYRIHGANNHMSAASATSEQEAKSQAGIEMTNQYINDFLVRIGYGARVDLSRNLQYRRTKYYQRSQWDLREVWGISRLILGWPFYSGQERAYYLARFLFKSGKFLLRSDVHTESTTI”, the protein production result was “failed”.

For the sequence “MKISVITINYNNGEQLEATIQSVVSNVTVLRELLGEKAEYIVIDGGSVDCSVSVLQKYSEYISYWISEKDKGIYHAMNKGISVAQGEYCFFLNSGDTFYEDDTLKKALLFLKEDFVCGNAVLKYAGGINEWSAPEIVNTLFFMQRFSVCHQSLFIRTELLKSHPYNETLMIVADYEQMFYEIAVNHRSYKKIDLTICYYGCDGVSSDHEKADAEKRSVINEFRYLGYIEPDELWNVVSKLKIGTRKYRLLLSLAKCLTSSPKYWVRLEHHHHHH”, the protein production result is reported as “not failed”.

As to “MKISVPTYPFARERYWISVPEMKTSTVNHILHPLVHRNTSDFTEQRFSSVFTGTEFFLSDHVVQGQKILPGVAYLEMAREAAEKAAGDLDGEQRVVSLKDIVWVRPITIESEPKEIHIGLFPEDNGDISFDIYSSSEHKEEALTIHCQGRAVISDEAETSILNLSSIQTECSLDTVTSEQCYAAFRKIGLDYGEGYQGIEKVYVGKDQLLAKISLPAFLKNDKQHFALHPSLMDSAFHATVGFIVSSVNAAGQAQTLSLPFALQEVDIFSPCPEKIWSYIRYSSDSLEHHHHHH”, the protein production entry was “failed”.
